From PMC9482650, “Quantitative fragmentomics allow affinity mapping of interactomes” (Nature Communications, 2022)

Legend:
Assay in all cases: holdup assay
Parameters in all cases: key: below the threshold = too weak to quantify, mostly under pKd 3.1 to 4
LDB3, O75112 = molecular target: LDB3, O75112
SCRIB_1, Q14160 = molecular target: SCRIB_1, Q14160
RHPN1, Q8TCX5 = molecular target: T1, RHPN1, Q8TCX5
T1 sequence (Q8TCX5 508-602, limits assumed, looked up): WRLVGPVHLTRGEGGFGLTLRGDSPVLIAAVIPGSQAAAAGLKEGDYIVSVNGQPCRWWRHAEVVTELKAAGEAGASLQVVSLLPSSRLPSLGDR

TIAM2, Q8IVF5 = molecular target: T2, TIAM2, Q8IVF5
T2 sequence (Q8IVF5 885-986, limits assumed, looked up): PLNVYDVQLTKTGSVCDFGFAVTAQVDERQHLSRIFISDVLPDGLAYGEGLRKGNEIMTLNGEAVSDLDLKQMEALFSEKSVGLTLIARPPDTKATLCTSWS

PICK1, Q9NRD5 = molecular target: PICK1, Q9NRD5
Sequence of PICK1, Q9NRD5 (Q9NRD5 17-115): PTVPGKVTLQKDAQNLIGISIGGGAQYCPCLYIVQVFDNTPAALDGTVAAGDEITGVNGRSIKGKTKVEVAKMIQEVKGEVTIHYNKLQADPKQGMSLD

GRID2IP_1, A4D2P6 = molecular target: GRID2IP_1, A4D2P6
Sequence of GRID2IP_1, A4D2P6 (A4D2P6 1-87): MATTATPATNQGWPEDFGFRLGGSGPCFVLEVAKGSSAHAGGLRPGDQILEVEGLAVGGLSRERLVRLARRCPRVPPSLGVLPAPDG

DLG1_3, Q12959 = molecular target: DLG1_3, Q12959
LRRC7, Q96NW7 = molecular target: T3, LRRC7, Q96NW7
T3 sequence (Q96NW7 1440-1537, limits assumed, looked up): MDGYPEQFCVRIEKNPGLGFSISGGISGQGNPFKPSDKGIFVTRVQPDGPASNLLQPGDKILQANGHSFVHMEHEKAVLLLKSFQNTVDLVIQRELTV

DLG3_2, Q92796 = molecular target: T4, DLG3_2, Q92796
T4 sequence (Q92796 221-321, limits assumed, looked up): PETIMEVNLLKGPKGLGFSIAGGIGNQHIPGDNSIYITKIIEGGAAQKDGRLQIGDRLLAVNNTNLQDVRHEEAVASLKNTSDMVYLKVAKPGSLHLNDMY

AHNAK1, Q09666 = molecular target: AHNAK1, Q09666
Sequence of AHNAK1, Q09666 (Q09666 4-100): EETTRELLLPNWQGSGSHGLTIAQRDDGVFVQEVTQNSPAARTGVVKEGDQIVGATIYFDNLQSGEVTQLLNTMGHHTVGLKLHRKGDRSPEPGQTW

NHERF3_3, Q5T2W1 = molecular target: T5, NHERF3_3, Q5T2W1
T5 sequence (Q5T2W1 238-333, limits assumed, looked up): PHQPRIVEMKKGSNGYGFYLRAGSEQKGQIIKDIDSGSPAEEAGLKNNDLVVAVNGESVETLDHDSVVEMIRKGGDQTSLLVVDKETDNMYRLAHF

SCRIB_2, Q14160 = molecular target: SCRIB_2, Q14160
Sequence of SCRIB_2, Q14160 (Q14160 857-960): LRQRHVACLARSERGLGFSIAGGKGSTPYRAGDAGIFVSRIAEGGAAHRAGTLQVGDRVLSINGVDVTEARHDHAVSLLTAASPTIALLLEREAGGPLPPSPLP

DLG3_3, Q92796 = molecular target: T6, DLG3_3, Q92796
T6 sequence (Q92796 374-475, limits assumed, looked up): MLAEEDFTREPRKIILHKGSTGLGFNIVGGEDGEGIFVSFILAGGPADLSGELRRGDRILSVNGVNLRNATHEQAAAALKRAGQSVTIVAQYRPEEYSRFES

DLG1_1, Q12959 = molecular target: DLG1_1, Q12959
Inadl_2, Q8NI35 = molecular target: Inadl_2, Q8NI35
Sequence of Inadl_2, Q8NI35 (Q8NI35 238-335): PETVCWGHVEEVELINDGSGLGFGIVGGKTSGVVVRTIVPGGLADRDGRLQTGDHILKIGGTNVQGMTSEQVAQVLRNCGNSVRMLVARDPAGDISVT

DFNB31_2, Q9P202 = molecular target: T7, DFNB31_2, Q9P202
T7 sequence (Q9P202 274-371, limits assumed, looked up): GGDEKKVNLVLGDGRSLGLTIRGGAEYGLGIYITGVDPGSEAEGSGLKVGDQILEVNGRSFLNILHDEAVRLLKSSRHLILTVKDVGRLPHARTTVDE

GOPC, Q9HD26 = molecular target: GOPC, Q9HD26
LNX2_3, Q8N448 = molecular target: T8, LNX2_3, Q8N448
T8 sequence (Q8N448 463-564, limits assumed, looked up): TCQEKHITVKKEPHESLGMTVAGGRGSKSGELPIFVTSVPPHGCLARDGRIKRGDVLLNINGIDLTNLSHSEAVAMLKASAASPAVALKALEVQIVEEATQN

PDZRN4_1, Q6ZMN7 = molecular target: PDZRN4_1, Q6ZMN7
Sequence of PDZRN4_1, Q6ZMN7 (Q6ZMN7 213-318): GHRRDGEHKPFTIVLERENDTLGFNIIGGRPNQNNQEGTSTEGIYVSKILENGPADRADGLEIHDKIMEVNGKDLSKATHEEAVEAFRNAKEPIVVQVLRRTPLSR

MAGI2_3, Q86UL8 = molecular target: MAGI2_3, Q86UL8
Sequence of MAGI2_3, Q86UL8 (Q86UL8 600-682): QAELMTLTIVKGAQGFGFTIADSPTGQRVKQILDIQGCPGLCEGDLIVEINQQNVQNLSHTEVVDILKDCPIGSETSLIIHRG

RAPGEF6, Q8TEU7 = molecular target: T9, RAPGEF6, Q8TEU7
T9 sequence (Q8TEU7 525-625, limits assumed, looked up): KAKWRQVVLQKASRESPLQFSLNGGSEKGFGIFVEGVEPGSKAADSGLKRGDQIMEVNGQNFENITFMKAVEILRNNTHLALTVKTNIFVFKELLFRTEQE

Inadl_4, Q8NI35 = molecular target: Inadl_4, Q8NI35
Sequence of Inadl_4, Q8NI35 (Q8NI35 547-651): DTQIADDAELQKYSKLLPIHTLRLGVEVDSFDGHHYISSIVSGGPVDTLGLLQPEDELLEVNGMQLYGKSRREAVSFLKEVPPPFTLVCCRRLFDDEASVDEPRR

LNX1_1, Q8TBB1 = molecular target: LNX1_1, Q8TBB1
Sequence of LNX1_1, Q8TBB1 (Q8TBB1 261-371): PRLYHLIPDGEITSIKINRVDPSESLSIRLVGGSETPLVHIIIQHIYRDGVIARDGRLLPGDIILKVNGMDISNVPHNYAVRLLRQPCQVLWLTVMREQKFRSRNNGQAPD

GRIP1_3, Q9Y3R0 = molecular target: T10, GRIP1_3, Q9Y3R0
T10 sequence (Q9Y3R0 247-346, limits assumed, looked up): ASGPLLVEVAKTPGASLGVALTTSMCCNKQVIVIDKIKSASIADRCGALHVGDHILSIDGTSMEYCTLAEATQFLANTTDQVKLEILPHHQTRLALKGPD

MPP2, Q14168 = molecular target: T11, MPP2, Q14168
T11 sequence (Q14168 180-250, limits assumed, looked up): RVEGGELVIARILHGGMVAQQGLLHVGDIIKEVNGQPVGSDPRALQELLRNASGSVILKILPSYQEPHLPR

Inadl_10, Q8NI35 = molecular target: Inadl_10, Q8NI35
Sequence of Inadl_10, Q8NI35 (Q8NI35 1673-1763): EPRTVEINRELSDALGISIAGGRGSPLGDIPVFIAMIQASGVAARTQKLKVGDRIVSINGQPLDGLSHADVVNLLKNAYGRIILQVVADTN

CASK, O14936 = molecular target: CASK, O14936
Sequence of CASK, O14936 (O14936 487-570): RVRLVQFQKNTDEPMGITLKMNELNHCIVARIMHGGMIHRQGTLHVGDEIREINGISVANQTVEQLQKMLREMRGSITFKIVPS

[1] = plain residues with an end cap or a label only (N-terminal biotin on a linker: ahx)
[2] = plain residues with an end cap or a label only (N-terminal biotin on a linker: ttds)
[3] = plain residues with an end cap or a label only (N-terminal biotin on a linker: ado-ado)

Measured: pKd

Sequence of LDB3, O75112 (O75112 1-94): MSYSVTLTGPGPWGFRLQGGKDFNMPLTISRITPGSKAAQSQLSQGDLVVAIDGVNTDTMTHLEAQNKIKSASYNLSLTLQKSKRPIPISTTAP
Sequence of SCRIB_1, Q14160 (Q14160 718-814): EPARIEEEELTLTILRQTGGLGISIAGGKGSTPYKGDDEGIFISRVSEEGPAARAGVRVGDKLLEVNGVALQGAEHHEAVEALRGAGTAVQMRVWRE

B1: DLL1, O00548 (peptide)
chain: KDECVIATEV
3.72: DLG1_1, Q12959; [1] | LNX1_1, Q8TBB1; [1]
3.95: RHPN1, Q8TCX5; [1]
below the threshold: LDB3, O75112; [1] | SCRIB_1, Q14160; [1] | TIAM2, Q8IVF5; [1] | PICK1, Q9NRD5; [1] | GRID2IP_1, A4D2P6; [1] | DLG1_3, Q12959; [1] | LRRC7, Q96NW7; [1] | AHNAK1, Q09666; [1] | NHERF3_3, Q5T2W1; [1] | DLG3_3, Q92796; [1] | Inadl_2, Q8NI35; [1] | DFNB31_2, Q9P202; [1] | GOPC, Q9HD26; [1] | LNX2_3, Q8N448; [1] | PDZRN4_1, Q6ZMN7; [1] | MAGI2_3, Q86UL8; [1] | RAPGEF6, Q8TEU7; [1] | Inadl_4, Q8NI35; [1] | GRIP1_3, Q9Y3R0; [1] | MPP2, Q14168; [1] | Inadl_10, Q8NI35; [1] | CASK, O14936; [1]
4.52: DLG3_2, Q92796; [1]
3.82: SCRIB_2, Q14160; [1]

B2: GDA, Q9Y2T3 (peptide)
chain: KQVVPFSSSV
3.84: LNX1_1, Q8TBB1; [2]
3.65: GOPC, Q9HD26; [2]
3.51: SCRIB_1, Q14160; [2]
3.89: DLG1_1, Q12959; [2]
3.49: PDZRN4_1, Q6ZMN7; [2]
below the threshold: LDB3, O75112; [2] | RHPN1, Q8TCX5; [2] | TIAM2, Q8IVF5; [2] | PICK1, Q9NRD5; [2] | GRID2IP_1, A4D2P6; [2] | DLG1_3, Q12959; [2] | LRRC7, Q96NW7; [2] | AHNAK1, Q09666; [2] | NHERF3_3, Q5T2W1; [2] | SCRIB_2, Q14160; [2] | DLG3_3, Q92796; [2] | Inadl_2, Q8NI35; [2] | DFNB31_2, Q9P202; [2] | LNX2_3, Q8N448; [2] | MAGI2_3, Q86UL8; [2] | RAPGEF6, Q8TEU7; [2] | Inadl_4, Q8NI35; [2] | GRIP1_3, Q9Y3R0; [2] | MPP2, Q14168; [2] | Inadl_10, Q8NI35; [2] | CASK, O14936; [2]
4.38: DLG3_2, Q92796; [2]

B3: ARVCF, O00192 (peptide)
chain: AKPQPVDSWV
3.63: PDZRN4_1, Q6ZMN7; [1]
4.94: LRRC7, Q96NW7; [1]
below the threshold: LDB3, O75112; [1] | TIAM2, Q8IVF5; [1] | PICK1, Q9NRD5; [1] | GRID2IP_1, A4D2P6; [1] | DLG1_3, Q12959; [1] | AHNAK1, Q09666; [1] | NHERF3_3, Q5T2W1; [1] | DLG3_3, Q92796; [1] | Inadl_2, Q8NI35; [1] | DFNB31_2, Q9P202; [1] | GOPC, Q9HD26; [1] | LNX2_3, Q8N448; [1] | MAGI2_3, Q86UL8; [1] | RAPGEF6, Q8TEU7; [1] | Inadl_4, Q8NI35; [1] | LNX1_1, Q8TBB1; [1] | GRIP1_3, Q9Y3R0; [1] | MPP2, Q14168; [1] | Inadl_10, Q8NI35; [1] | CASK, O14936; [1]
3.8: RHPN1, Q8TCX5; [1]
4.29: DLG1_1, Q12959; [1]
5.16: SCRIB_2, Q14160; [1]
4.49: DLG3_2, Q92796; [1]
3.74: SCRIB_1, Q14160; [1]

B4: ARHGAP6, O43182 (peptide)
chain: NPDALPETLV
below the threshold: LDB3, O75112; [2] | SCRIB_1, Q14160; [2] | TIAM2, Q8IVF5; [2] | PICK1, Q9NRD5; [2] | GRID2IP_1, A4D2P6; [2] | LRRC7, Q96NW7; [2] | AHNAK1, Q09666; [2] | NHERF3_3, Q5T2W1; [2] | DLG3_3, Q92796; [2] | DFNB31_2, Q9P202; [2] | LNX2_3, Q8N448; [2] | RAPGEF6, Q8TEU7; [2] | Inadl_4, Q8NI35; [2] | GRIP1_3, Q9Y3R0; [2] | MPP2, Q14168; [2] | Inadl_10, Q8NI35; [2] | CASK, O14936; [2]
4.11: PDZRN4_1, Q6ZMN7; [2]
4.14: GOPC, Q9HD26; [2]
3.89: MAGI2_3, Q86UL8; [2]
4.39: DLG1_1, Q12959; [2]
4.61: RHPN1, Q8TCX5; [2]
4.18: DLG3_2, Q92796; [2]
3.5: DLG1_3, Q12959; [2]
3.83: LNX1_1, Q8TBB1; [2]
3.8: SCRIB_2, Q14160; [2]
3.93: Inadl_2, Q8NI35; [2]

B5: U2AF2, P26368 (peptide)
chain: PDSYHRRDFW
4.17: PICK1, Q9NRD5; [3]
3.89: PDZRN4_1, Q6ZMN7; [3]
3.69: MPP2, Q14168; [3]
3.72: DLG1_3, Q12959; [3]
3.6: GOPC, Q9HD26; [3]
below the threshold: LDB3, O75112; [3] | SCRIB_1, Q14160; [3] | RHPN1, Q8TCX5; [3] | TIAM2, Q8IVF5; [3] | GRID2IP_1, A4D2P6; [3] | LRRC7, Q96NW7; [3] | DLG3_2, Q92796; [3] | AHNAK1, Q09666; [3] | NHERF3_3, Q5T2W1; [3] | SCRIB_2, Q14160; [3] | DLG3_3, Q92796; [3] | DLG1_1, Q12959; [3] | Inadl_2, Q8NI35; [3] | DFNB31_2, Q9P202; [3] | LNX2_3, Q8N448; [3] | MAGI2_3, Q86UL8; [3] | RAPGEF6, Q8TEU7; [3] | Inadl_4, Q8NI35; [3] | LNX1_1, Q8TBB1; [3] | GRIP1_3, Q9Y3R0; [3] | Inadl_10, Q8NI35; [3] | CASK, O14936; [3]
